According to publication PMC13623948:

Assays:
[1] = target: human UBA6 (full-length, amino acid residues 1-1052) (human) (UniProt A0AVT1)
[2] = target: human UBA1 (human) (UniProt P22314); experiment: BLI; His-tagged E1 ligands on Anti-Penta-His (His1K) biosensors; analyte BIRC6^UBC or BIRC6^(UBCΔinsertion loop) at 40-3240 nM; 50 mM HEPES, pH 7.4, 150 mM NaCl, 0.05% Tween-20, 10 mM imidazole; 25 °C; steady-state 1:1 fit
[3] = target: oxyester-linked UBA6-Ub conjugate (UBA6 C625S charged with ubiquitin) (human) (UniProt A0AVT1); experiment: as above

human UBA6 (full-length, amino acid residues 1-1052) (human), sequence (A0AVT1 whole entry, the tested form may be a part): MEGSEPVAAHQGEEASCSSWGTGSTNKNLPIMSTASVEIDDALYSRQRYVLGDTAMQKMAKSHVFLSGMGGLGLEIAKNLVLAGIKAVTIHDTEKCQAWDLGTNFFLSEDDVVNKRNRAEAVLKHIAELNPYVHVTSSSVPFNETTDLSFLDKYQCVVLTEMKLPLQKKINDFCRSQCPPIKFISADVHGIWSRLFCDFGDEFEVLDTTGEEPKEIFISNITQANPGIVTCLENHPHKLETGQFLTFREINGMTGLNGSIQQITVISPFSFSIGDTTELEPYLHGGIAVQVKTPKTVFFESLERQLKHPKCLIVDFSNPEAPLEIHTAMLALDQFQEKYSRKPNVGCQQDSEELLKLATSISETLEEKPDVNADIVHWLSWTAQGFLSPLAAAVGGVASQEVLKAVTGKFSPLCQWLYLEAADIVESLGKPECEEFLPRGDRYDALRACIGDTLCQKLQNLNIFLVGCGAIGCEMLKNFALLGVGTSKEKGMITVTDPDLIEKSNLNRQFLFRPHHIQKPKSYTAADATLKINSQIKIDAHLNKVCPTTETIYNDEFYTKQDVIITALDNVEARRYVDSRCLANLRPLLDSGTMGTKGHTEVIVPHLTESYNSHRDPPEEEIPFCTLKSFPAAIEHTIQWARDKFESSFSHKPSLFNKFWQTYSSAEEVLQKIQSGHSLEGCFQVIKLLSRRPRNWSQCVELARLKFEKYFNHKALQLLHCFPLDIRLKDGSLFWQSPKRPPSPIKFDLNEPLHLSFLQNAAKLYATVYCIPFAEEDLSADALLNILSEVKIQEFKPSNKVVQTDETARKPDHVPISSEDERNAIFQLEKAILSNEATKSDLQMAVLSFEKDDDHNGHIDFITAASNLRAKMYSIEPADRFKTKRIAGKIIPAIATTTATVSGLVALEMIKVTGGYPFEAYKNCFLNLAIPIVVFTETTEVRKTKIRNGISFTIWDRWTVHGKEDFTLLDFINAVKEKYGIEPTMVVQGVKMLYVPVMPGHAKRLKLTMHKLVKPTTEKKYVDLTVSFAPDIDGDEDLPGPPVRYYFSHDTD
UBC domain of BIRC6 (residues 4520-4857), sequence (Q9NR09 4520-4857): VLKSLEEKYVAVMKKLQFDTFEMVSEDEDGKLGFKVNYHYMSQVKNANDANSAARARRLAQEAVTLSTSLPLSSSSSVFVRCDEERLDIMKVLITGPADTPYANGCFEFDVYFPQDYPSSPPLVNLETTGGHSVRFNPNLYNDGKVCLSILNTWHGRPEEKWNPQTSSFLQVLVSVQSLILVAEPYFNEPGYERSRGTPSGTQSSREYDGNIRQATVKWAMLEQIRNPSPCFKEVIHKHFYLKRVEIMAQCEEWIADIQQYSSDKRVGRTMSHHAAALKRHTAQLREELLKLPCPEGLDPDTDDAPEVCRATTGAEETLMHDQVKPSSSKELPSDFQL

Row | Substance | reduction of Ub charging of BIRC6^UBC by UBA6 relative to WT (E1–E2 transthioesterification assay, 2 min) [1] [%] | further results
1 | BIRC6^UBC N-terminal extension mutant (A4569R) (from UniProt Q9NR09 4520-4857) | 25 | –
2 | BIRC6^UBC Y4711G (from UniProt Q9NR09 4520-4857) (domain or fragment) | – | reduction of BIRC6^UBC~Ub formation by UBA6 relative to WT (E1–E2 transthioesterification assay, 2 min) [1]: 60%
3 | BIRC6^UBC with the insertion loop deleted (from UniProt Q9NR09 4520-4857) (domain or fragment) | – | Kd [2]: 1470 nM
4 | BIRC6^UBC β4 loop mutant (Q4634A) (from UniProt Q9NR09 4520-4857) (domain or fragment) | 50 | –
5 | UBC domain of BIRC6 (residues 4520-4857) (from UniProt Q9NR09 4520-4857) (domain or fragment) | – | Kd [3]: 2410 nM

Continued, in another order:

Row | reduction of Ub charging of BIRC6^UBC by UBA6 relative to WT (E1–E2 transthioesterification assay, 2 min) [1] [%] | Substance | further results
6 | 50 | BIRC6^UBC C-terminal extension mutant (R4745A-R4799A-T4789A) (from UniProt Q9NR09 4520-4857) (domain or fragment) | –
7 | 25 | BIRC6^UBC N-helix mutant (R4576A-Q4580A-V4583G) (from UniProt Q9NR09 4520-4857) (domain or fragment) | –
